In patent publication US20210332145A1 (SINGLE CELL TECHNOLOGY, published 2021):
Residue numbers refer to the chain shown, from its start.

Assays:
[1] = target: T1, human BCMA with a His tag (ACROBiosystems, Catalog No.: BCA-H522y) (human); test: ELISA, plate-coated human BCMA-His
T1 construct: Bought His-tagged recombinant protein; also called huBCMA-His; Recombinant human BCMA
T1 chain: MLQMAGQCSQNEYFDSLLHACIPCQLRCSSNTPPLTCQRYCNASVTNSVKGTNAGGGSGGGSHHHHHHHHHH
Protocol: (§1) The recombinantly expressed antibodies were used to assess binding activity to BCMA of different species origins by conventional ELISA according to the known art. Recombinant human BCMA, cyno BCMA, and mouse BCMA were coated onto ELISA plates to detect binding at serially diluted concentrations of the anti-BCMA antibody preparations.
(§2) The ability for antibodies of the present disclosure to bind human BCMA was measured with an ELISA assay. For the BCMA binding assay, a 96-well plate (Nunc) is coated with human BCMA with a His tag (ACROBiosystems, Catalog No.: AC108P1-180611F2-Bulk, SEQ ID NO:2) at 0.2 μg/well overnight at 4° C. Wells are blocked for 2 h with blocking buffer (PBS containing 3% bovine serum albumin). Wells are washed three times with PBS containing 0.1% Tween-20. Anti-human BCMA antibodies of the present disclosure or control IgG (100 μL) is then added and incubated at room temperature for 1 h. After washing, the plate is incubated with 100 μL of goat anti-mouse IgG Fcγ Fragment Specific-HRP conjugate (Jackson ImmunoResearch) at room temperature for 1 h. The plates are washed and then incubated with 100 μL of 3,3′,5,5′-tetra-methylbenzidine. The absorbance at 450 nm is read on a microplate reader. The half maximal effective concentration (EC50) is calculated using GraphPad Prism 6 software.
In experiments performed essentially as described above, anti-human BCMA antibodies of the present disclosure bind human BCMA with a His tag (ACROBiosystems, Beijing, China, Catalog No.: BCA-H522y, SEQ ID NO:2) with an EC50 values shown in Table 3.

[2] = target: T1, human BCMA with a His tag …; test: SPR, Biacore T200
Protocol: The binding affinity of select anti-BCMA was measured on a surface plasmon resonance (SPR) instrument, Biacore T200™, against human BCMA by a method known in the art.
In experiments performed essentially as described above, a subset of anti-human BCMA antibodies of the present disclosure bind human BCMA with a His tag (ACROBiosystems, Beijing, China, Catalog No.: BCA-H522y, SEQ ID NO:2) with affinity shown in Table 6.

[3] = target: T2, BCMA on cells (293T cells transfected with BCMA; H929, MM.1S and U266 cell lines expressing BCMA) (human, UniProt Q02223 1-184); test: flow cytometry, H929 cells
T2 construct: H929, MM.1S and U266 carry the native protein; also called B-cell Maturation Antigen; TNFRSF17
T2 sequence: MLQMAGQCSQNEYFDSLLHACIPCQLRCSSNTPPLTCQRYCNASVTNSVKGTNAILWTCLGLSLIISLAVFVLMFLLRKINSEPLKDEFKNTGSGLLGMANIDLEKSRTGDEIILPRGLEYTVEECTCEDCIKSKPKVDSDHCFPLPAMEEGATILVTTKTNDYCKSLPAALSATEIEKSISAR

[4] = target: T2, BCMA on cells (293T cells transfected …); test: flow cytometry, 293T cells transfected with BCMA, above parental 293T background
[5] = target: T3, mouse BCMA with a His tag (ACROBiosystems, Catalog No.: BCA-M52H3) (mouse); test: ELISA, plate-coated mouse BCMA-His
T3 construct: Bought His-tagged recombinant protein
T3 chain: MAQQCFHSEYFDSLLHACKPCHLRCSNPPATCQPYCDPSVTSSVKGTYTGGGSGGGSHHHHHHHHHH
Protocol: as §1, §2
In experiments performed essentially as described above, anti-human BCMA antibodies of the present disclosure bind mouse BCMA with a His tag (ACROBiosystems, Beijing, China, Catalog No.: BCA-M52H3, SEQ ID NO:109) with an EC50 values shown in Table 5.

[6] = target: T2, BCMA on cells (293T cells transfected …); test: flow cytometry, H929 cells; remark: listed apart in the source
Protocol: A cell line expressing BCMA, H929, was used to assess binding by anti-BCMA antibodies on the native protein on the cell surface by flow cytometry according to the known art. A subset of anti-human BCMA antibodies were assayed for binding to H929 and the fraction of cells bound the labeled antibody above background defined by control is shown in Table 8.

[7] = target: T4, cyno BCMA with a His tag (ACROBiosystems, Catalog No.: BCA-052H7) (cyno); test: ELISA, plate-coated cyno BCMA-His
T4 construct: Bought His-tagged recombinant protein
T4 sequence (chain, as listed by the source limits assumed): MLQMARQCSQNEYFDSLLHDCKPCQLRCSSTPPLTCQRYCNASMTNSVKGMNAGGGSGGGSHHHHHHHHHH
Protocol: as §1, §2
In experiments performed essentially as described above, anti-human BCMA antibodies of the present disclosure bind cyno BCMA with a His tag (ACROBiosystems, Beijing, China, Catalog No.: BCA-052H7, SEQ ID NO:110) with an EC50 values shown in Table 4.

[8] = target: T2, BCMA on cells (293T cells transfected …); test: flow cytometry, 293T cells transfected with BCMA

B1: SCT-Aa13(h/h) (antibody, V domains shown)
VH: QVQLQQSDAELVKPGASVKISCKVSGYTFTDYTIHWMKQRPEQGLEWIGYIYPRDGSTKYNEKFKGKATLTADKSSSTAYMQLNSLTSEDSAVYFCARWDYEGFDYWGQGTTLTVSS
VL: DIVMTQSPATLSVTPGDRVSLSCRASQSISDYLHWYQQKSHESPRLLIKYASQSISGIPSRFSGSGSGSDFTLSINSVEPEDVGVYYCQNGHSFPPTFGSGTKLEIK
notes: Full IgG format, chimeric: human IgG1 heavy chain constant region, human kappa light chain constant region
B1 gave an EC50 [1] of 0.00268 µg/mL, a Kd [2] of 4.85 nM and a koff [2] of 0.0157 s⁻¹. For the same binder, the kon [2] was 3.23e+06 M⁻¹ s⁻¹, the Mean fluorescent intensity [3] was 756 and the “Positive (%)” value [4] was 74.3%. The EC50 [5] was 0.019 µg/mL, the “Positive (%)” value [6] was 96.5% and the EC50 [7] was 0.131 µg/mL.

B2: SCT-Aa18(h/h) (antibody, V domains shown)
VH: EVQLQQSGPELVKPGASVKISCKASGYTFISYVMHWVKQKPGQGLEWIGYIIPYNDGTKYNEKFKGKATLTSDKSSSTAYMELSSLTSEDSAVYYCAKWGNWDEGTWFPYWGQGTLVTVSA
VL: DVLMTQTPLSLPVSLGDQASFSCRSSQSIVHSDGNTYLEWYLQKPGQSPKLLIYKISNRFSGVPDRFSGSGSGTDFTLKISRVEAEDLGVYYCFQGSHVPWTFGGGTKLEIK
notes: as for B1
In the case of B2, the EC50 [1] is reported as 0.00268 µg/mL, the Kd [2] is reported as 12.2 nM and the koff [2] is reported as 0.0506 s⁻¹. For the same binder, the kon [2] was 4.15e+06 M⁻¹ s⁻¹, the Mean fluorescent intensity [3] was 875 and the “Positive (%)” value [4] was 76.1%. For the same binder, the EC50 [5] was 0.271 µg/mL, the “Positive (%)” value [6] was 97% and the EC50 [7] was 0.0788 µg/mL.

B3: SCT-Aa17(h/h) (antibody, V domains shown)
VH: EVQLQQSGPELVKPGASVKMSCKASGYTFTSYVMDWVKQKPGQGLEWIGYINPYNDGTKYNEKFKGKATLTSDKSSSTVYMELSSLTSEDSAVYHCARSDYDYGYAMDYWGQGTSVTVSS
VL: DIQMTQSPASLSLSVGETVTITCRASENIYSNLAWYQQKQGNSPQLLVYSATHLADGVPSRFSGSGSGTQYSLKINSLQSEDFGCYYCQHFWGPPWTFGGGTKLEIK
notes: as for B1
B3 gave an EC50 [1] of 0.00356 µg/mL, a Kd [2] of 2.45 nM and a koff [2] of 0.0132 s⁻¹. The kon [2] was 5.39e+06 M⁻¹ s⁻¹, the Mean fluorescent intensity [3] was 232 and the “Positive (%)” value [4] was 43%. For the same binder, the EC50 [5] was 4.33 µg/mL, the “Positive (%)” value [6] was 75% and the EC50 [7] was 2.17 µg/mL.

B4: SCT-Aa02 (antibody, V domains shown)
VH: EVKLLQSGGGLVQPGGSLKLSCAASGIDFSRYWMSWVRRAPGKGLEWIGEINPDSSTINSAPSLEDKFIISRDNAKNTLYLQMSKVRSEDTALYYCASLYYDYERDYAMDYWGQGASVTVSS
VL: DIVMTQSQKFMSTSVGDRVSVTCKASQNVGTNVAWYQQKPGQSPKALIYSASYRFSGVPDRFTGSGSGTDFTLTISNVQSEDLAEYFCQQYHSYPFTFGGGTKLEIK
B4: binds [8].

B5: SCT-Aa06(h/h) (antibody, V domains shown)
VH: EVQLQQSGPELVKPGNSVKISCKASGYSFTGYFMNWVMQSHGKSLEWIGRINPYNGDTFYNQKFKGKATLTVDKSSSTAHMELRSLTSEDSAVYYCARLDYTNYNSYPMDYWGQGTSVTVSS
VL: DIQMTHTTSSLSASLGDRVTISCSASQGISNYLNWYLQKPDGTVKLLIYYTSNLHSGVPSRFSGSGSGTDFSLTISNLQPEDIATYYCQQYSKFPWTFGGGTKLEIK
notes: as for B1
B5 showed an EC50 [1] of 0.00278 µg/mL, a Kd [2] of 5.38 nM and a koff [2] of 0.02 s⁻¹. The kon [2] was 3.72e+06 M⁻¹ s⁻¹, the Mean fluorescent intensity [3] was 1260 and the “Positive (%)” value [4] was 82.8%. The EC50 [5] was 0.0972 µg/mL, the “Positive (%)” value [6] was 99.6% and the EC50 [7] was 0.0976 µg/mL.

B6: SCT-Aa16(h/h) (antibody, V domains shown)
VH: EVQLQQSGPELVKPGASVKMSCKGSGYTFTNYIMHWVKQKPGQGLEWIGYIIPYNDNTKYNEKFKGKATLTSDKSSSTAYMELSSLTSEDSAVYYCATYEYDVGLDYWGQGTTLTVSS
VL: B5 VL with I2L, H6Q, S26R, S30V, L37Q, Y50N, N53S, F71Y, Q79E, F94L
notes: as for B1
B6 gave an EC50 [1] of 0.00201 µg/mL, a Kd [2] of 26.7 nM and a koff [2] of 0.199 s⁻¹. The kon [2] was 7.43e+06 M⁻¹ s⁻¹, the Mean fluorescent intensity [3] was 853 and the “Positive (%)” value [4] was 68.1%. The EC50 [5] was 1.08 µg/mL, the “Positive (%)” value [6] was 96.1% and the EC50 [7] was 0.0778 µg/mL.
